According to the RNAGym collection of RNA variant scans (doi:10.1093/molbev/msab373):

B1: Azoarcus group I ribozyme (parent)
chain: GUGCCUUGCGCCGGGAAACCACGCAAGGGAUGGUGUCAAAUUCGGCGAAACCUAAGCGCCCGCCCGGGCGUAUGGCAACGCCGAGCCAAGCUUCGGCGCCUGCGCCGAUGAAGGUGUAGAGACUAGACGGCACCCACCUAAGGCAAACGCUAUGGUGAAGGCAUAGUCCAGGGAGUGGCGAAAGUCACACAAACCGG

Variants of: B1
Test: reverse-splicing fitness (ratio to wild type); higher = more active; in vitro selection; Mg2+ level not given
How it was run: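 An in vitro group I ribozyme library with randomized positions was T7-transcribed and gel-purified. In triplicate, 10 pmol RNA in EPPS pH 7.5 was reacted with 50 pmoles of a 30-nt RNA substrate for 1 h at 37 °C across several added MgCl2 levels (1–48 mM), then stopped with EDTA. Products were reverse transcribed from a substrate-complementary primer, PCR-amplified and sequenced (HiSeq 4000). Fitness is a variant's read proportion after selection over that before, normalised to wild type.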

With GUGCCUUGCGCCGGGAAACCACGCAAGGGAUGGUGUCAAAUUCGGCGAAACCUAAGCGCCCGCCCGGGCGUAUGGCAACGCGGAGCCAAGCUUCGGCGCCUGCGCCGAUGCAGGUGUAGAGACUAGACGGCACCCACCUAAGGCGAACGCUAUGGUGAAGGCAUAGUCCAGGGAGUGGCGAAAGUCACACAAACCGG [C82G A111C A145G] as the variant, how does the reverse-splicing fitness read?
Its reverse-splicing fitness is 0.289.

With GUGCCUUGCGCCGGGAAACCACGCAAGGGAUGGUGUCAAAUUCGGCGAAACCUAAGCGCCCGCCCGGGCGUAUGGCAACGCGGAGCCAAGCUUCGGCGCCUGCGCCGAUGCAGGUGUAGAGACUAGACGGCACCCACCUAAGGCGAACGAUAUGGUGAAGGCAUAGUCAAGGGAGAGGCGAAAGUCACACAAACCGG [C82G A111C A145G C150A C169A U176A] as the variant, how does the reverse-splicing fitness read?
Its reverse-splicing fitness is 0.0179.

For GUGCCUUGCGCCGGGAAACCACGCAAGGGAUGGUGUCAAAUUCGGCGAAACCUAAGCGCCCGCCCGGGCGUAUGGCAACGCGGAGCCAAGCUUCGGCGCCUGCGCCGAUGCAGGUGUAGAGACUAGACGGCACCCACCUAAGGCGAACGAUAUGGUGAAGGCAUAGUCAAGGGAGCGGCGAAAGUCACACAAACCGG [C82G A111C A145G C150A C169A U176C], which reverse-splicing fitness is on record?
Its reverse-splicing fitness is 0.0204.

With GUGCCUUGCGCCGGGAAACCACGCAAGGGAUGGUGUCAAAUUCGGCGAAACCUAAGCGCCCGCCCGGGCGUAUGGCAACGCGGAGCCAAGCUUCGGCGCCUGCGCCGAUGCAGGUGUAGAGACUAGACGGCACCCACCUAAGGCGAACGAUAUGGUGAAGGCAUAGUCAAGGGAGGGGCGAAAGUCACACAAACCGG [C82G A111C A145G C150A C169A U176G] as the variant, how does the reverse-splicing fitness read?
The reverse-splicing fitness was 0.0086.

Which reverse-splicing fitness does the source give for GUGCCUUGCGCCGGGAAACCACGCAAGGGAUGGUGUCAAAUUCGGCGAAACCUAAGCGCCCGCCCGGGCGUAUGGCAACGCGGAGCCAAGCUUCGGCGCCUGCGCCGAUGCAGGUGUAGAGACUAGACGGCACCCACCUAAGGCGAACGAUAUGGUGAAGGCAUAGUCCAGGGAGUGGCGAAAGUCACACAAACCGG [C82G A111C A145G C150A] here?
Its reverse-splicing fitness is 0.0364.

Which reverse-splicing fitness does the source give for GUGCCUUGCGCCGGGAAACCACGCAAGGGAUGGUGUCAAAUUCGGCGAAACCUAAGCGCCCGCCCGGGCGUAUGGCAACGCGGAGCCAAGCUUCGGCGCCUGCGCCGAUGCAGGUGUAGAGACUAGACGGCACCCACCUAAGGCCAACGCUAUGGUGAAGGCAUAGUCAAGGGAGAGGCGAAAGUCACACAAACCGG [C82G A111C A145C C169A U176A] here?
The reverse-splicing fitness was 0.0184.

For GUGCCUUGCGCCGGGAAACCACGCAAGGGAUGGUGUCAAAUUCGGCGAAACCUAAGCGCCCGCCCGGGCGUAUGGCAACGCGGAGCCAAGCUUCGGCGCCUGCGCCGAUGCAGGUGUAGAGACUAGACGGCACCCACCUAAGGCCAACGCUAUGGUGAAGGCAUAGUCAAGGGAGCGGCGAAAGUCACACAAACCGG [C82G A111C A145C C169A U176C], which reverse-splicing fitness is on record?
The reverse-splicing fitness was 0.015.

Which reverse-splicing fitness does the source give for GUGCCUUGCGCCGGGAAACCACGCAAGGGAUGGUGUCAAAUUCGGCGAAACCUAAGCGCCCGCCCGGGCGUAUGGCAACGCGGAGCCAAGCUUCGGCGCCUGCGCCGAUGCAGGUGUAGAGACUAGACGGCACCCACCUAAGGCCAACGCUAUGGUGAAGGCAUAGUCAAGGGAGGGGCGAAAGUCACACAAACCGG [C82G A111C A145C C169A U176G] here?
The reverse-splicing fitness was 0.00713.

With GUGCCUUGCGCCGGGAAACCACGCAAGGGAUGGUGUCAAAUUCGGCGAAACCUAAGCGCCCGCCCGGGCGUAUGGCAACGCGGAGCCAAGCUUCGGCGCCUGCGCCGAUGCAGGUGUAGAGACUAGACGGCACCCACCUAAGGCGAACGAUAUGGUGAAGGCAUAGUCUAGGGAGAGGCGAAAGUCACACAAACCGG [C82G A111C A145G C150A C169U U176A] as the variant, how does the reverse-splicing fitness read?
The reverse-splicing fitness was 0.0153.

With GUGCCUUGCGCCGGGAAACCACGCAAGGGAUGGUGUCAAAUUCGGCGAAACCUAAGCGCCCGCCCGGGCGUAUGGCAACGCGGAGCCAAGCUUCGGCGCCUGCGCCGAUGCAGGUGUAGAGACUAGACGGCACCCACCUAAGGCGAACGAUAUGGUGAAGGCAUAGUCGAGGGAGAGGCGAAAGUCACACAAACCGG [C82G A111C A145G C150A C169G U176A] as the variant, how does the reverse-splicing fitness read?
The reverse-splicing fitness was 0.0149.

Which reverse-splicing fitness does the source give for GUGCCUUGCGCCGGGAAACCACGCAAGGGAUGGUGUCAAAUUCGGCGAAACCUAAGCGCCCGCCCGGGCGUAUGGCAACGCGGAGCCAAGCUUCGGCGCCUGCGCCGAUGCAGGUGUAGAGACUAGACGGCACCCACCUAAGGCGAACGAUAUGGUGAAGGCAUAGUCGAGGGAGCGGCGAAAGUCACACAAACCGG [C82G A111C A145G C150A C169G U176C] here?
Its reverse-splicing fitness is 0.0256.

For GUGCCUUGCGCCGGGAAACCACGCAAGGGAUGGUGUCAAAUUCGGCGAAACCUAAGCGCCCGCCCGGGCGUAUGGCAACGCGGAGCCAAGCUUCGGCGCCUGCGCCGAUGCAGGUGUAGAGACUAGACGGCACCCACCUAAGGCGAACGAUAUGGUGAAGGCAUAGUCGAGGGAGGGGCGAAAGUCACACAAACCGG [C82G A111C A145G C150A C169G U176G], which reverse-splicing fitness is on record?
The reverse-splicing fitness was 0.00825.

Which reverse-splicing fitness does the source give for GUGCCUUGCGCCGGGAAACCACGCAAGGGAUGGUGUCAAAUUCGGCGAAACCUAAGCGCCCGCCCGGGCGUAUGGCAACGCGGAGCCAAGCUUCGGCGCCUGCGCCGAUGCAGGUGUAGAGACUAGACGGCACCCACCUAAGGCCAACGCUAUGGUGAAGGCAUAGUCUAGGGAGCGGCGAAAGUCACACAAACCGG [C82G A111C A145C C169U U176C] here?
The reverse-splicing fitness was 0.016.

With GUGCCUUGCGCCGGGAAACCACGCAAGGGAUGGUGUCAAAUUCGGCGAAACCUAAGCGCCCGCCCGGGCGUAUGGCAACGCGGAGCCAAGCUUCGGCGCCUGCGCCGAUGCAGGUGUAGAGACUAGACGGCACCCACCUAAGGCCAACGCUAUGGUGAAGGCAUAGUCUAGGGAGGGGCGAAAGUCACACAAACCGG [C82G A111C A145C C169U U176G] as the variant, how does the reverse-splicing fitness read?
Its reverse-splicing fitness is 0.00741.

With GUGCCUUGCGCCGGGAAACCACGCAAGGGAUGGUGUCAAAUUCGGCGAAACCUAAGCGCCCGCCCGGGCGUAUGGCAACGCGGAGCCAAGCUUCGGCGCCUGCGCCGAUGCAGGUGUAGAGACUAGACGGCACCCACCUAAGGCCAACGCUAUGGUGAAGGCAUAGUCUAGGGAGAGGCGAAAGUCACACAAACCGG [C82G A111C A145C C169U U176A] as the variant, how does the reverse-splicing fitness read?
Its reverse-splicing fitness is 0.018.
